The data set concerns the target T1, Ets1 280-441 (UniProt P14921 280-441).
T1 sequence: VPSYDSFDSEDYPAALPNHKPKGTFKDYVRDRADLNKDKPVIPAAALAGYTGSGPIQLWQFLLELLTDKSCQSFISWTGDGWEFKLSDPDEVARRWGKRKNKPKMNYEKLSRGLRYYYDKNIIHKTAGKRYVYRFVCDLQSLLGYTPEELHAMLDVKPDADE
The data set is described as follows: X-ray crystallography.

B1: stromelysin-1 EBS palindrome, crystal duplex (dsDNA)
DNA 1: CAGGAAGCACTTCCTG
DNA 2: GCAGGAAGTGCTTCCT
With B1, the binding result is reported as “binds”.

The values are drawn from paper PMC2928650.
